Target: T1, FLAG-tagged SIRT1 (ectopically expressed in HEK293 cells) (UniProt Q96EB6 1-747, limits assumed)
T1 construct: Immunoprecipitated from lysate of transfected HEK293 cells; also called FLAG-SIRT1; not shown: FLAG tag
T1 sequence (looked up): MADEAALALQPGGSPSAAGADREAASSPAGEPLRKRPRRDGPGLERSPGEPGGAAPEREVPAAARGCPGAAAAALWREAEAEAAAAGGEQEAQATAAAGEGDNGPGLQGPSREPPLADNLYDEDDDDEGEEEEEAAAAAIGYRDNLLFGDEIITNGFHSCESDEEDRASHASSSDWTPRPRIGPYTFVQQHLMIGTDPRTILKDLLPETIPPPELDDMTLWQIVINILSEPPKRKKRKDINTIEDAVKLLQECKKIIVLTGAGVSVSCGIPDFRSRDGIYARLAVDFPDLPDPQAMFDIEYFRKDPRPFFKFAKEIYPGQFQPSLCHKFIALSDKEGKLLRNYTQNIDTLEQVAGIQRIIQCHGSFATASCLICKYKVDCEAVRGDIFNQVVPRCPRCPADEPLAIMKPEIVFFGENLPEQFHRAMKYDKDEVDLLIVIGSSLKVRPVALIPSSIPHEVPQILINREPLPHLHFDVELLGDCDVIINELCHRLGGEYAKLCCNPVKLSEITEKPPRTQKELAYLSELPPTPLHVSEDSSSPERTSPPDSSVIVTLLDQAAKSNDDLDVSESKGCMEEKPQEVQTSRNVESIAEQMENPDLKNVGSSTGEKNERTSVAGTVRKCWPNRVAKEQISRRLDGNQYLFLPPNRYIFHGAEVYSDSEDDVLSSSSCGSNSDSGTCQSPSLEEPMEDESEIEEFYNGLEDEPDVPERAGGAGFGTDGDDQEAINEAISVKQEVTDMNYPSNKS
Assay: co-immunoprecipitation in transfected HEK293 cells, Western blot (FIG. 1F)
From the text: This was further confirmed by co-immunoprecipitation in HEK293 cells expressing FLAG-SIRT1 together with either lamin A or lamin C.

B1: lamin C (ectopically expressed in HEK293 cells) (other, UniProt P02545-2 1-572, looked up)
chain: METPSQRRATRSGAQASSTPLSPTRITRLQEKEDLQELNDRLAVYIDRVRSLETENAGLRLRITESEEVVSREVSGIKAAYEAELGDARKTLDSVAKERARLQLELSKVREEFKELKARNTKKEGDLIAAQARLKDLEALLNSKEAALSTALSEKRTLEGELHDLRGQVAKLEAALGEAKKQLQDEMLRRVDAENRLQTMKEELDFQKNIYSEELRETKRRHETRLVEIDNGKQREFESRLADALQELRAQHEDQVEQYKKELEKTYSAKLDNARQSAERNSNLVGAAHEELQQSRIRIDSLSAQLSQLQKQLAAKEAKLRDLEDSLARERDTSRRLLAEKEREMAEMRARMQQQLDEYQELLDIKLALDMEIHAYRKLLEGEEERLRLSPSPTSQRSRGRASSHSSQTQGGGSVTKKRKLESTESRSSFSQHARTSGRVAVEEVDEEGKFVRLRNKSNEDQSMGNWQIKRQNGDDPLLTYRFPPKFTLKAGQVVTIWAAGAGATHSPPTDLVWKAQNTWGCGNSLRTALINSTGEEVAMRKLVRSVTVVEDDEDEDGDDLLHHHHVSGSRR
- binding result: no binding

Reference: patent US20160067305A1 (UNIVERSITY OF HONG KONG, published 2016)
